Patent US20140080757A1 (ZEALAND PHARMA A S, published 2014)
One block for each binder: values may come before it. Numbered stars: 1 amine (or outer) side, 2 acyl side, 3 side chain; on linkers, the order of the positions; unused ones are H or OH. Square brackets hold non-standard residues; d marks the D form. Side chains are listed from the residue outwards. * marks the point of attachment. γGlu = O=C(O)[C@H](CCC(=O)[*:2])N[*:1]; Palmitoyl = CCCCCCCCCCCCCCCC(=O)*; Aib = CC(C)(N)C(=O)O

Columns and labels:
Assay in all cases: cell-based or functional assay
[1] = target: human glucagon receptor (Glucagon-R) (human, UniProt P47871 26-477)
[2] = target: human glucagon-like peptide 1 receptor (GLP-1R) (human, UniProt P43220 24-463)
[3] = target: T1, endogenous GLP-1 receptor of a murine insulinoma cell line (murine, UniProt O35659 22-463)
T1 sequence (looked up): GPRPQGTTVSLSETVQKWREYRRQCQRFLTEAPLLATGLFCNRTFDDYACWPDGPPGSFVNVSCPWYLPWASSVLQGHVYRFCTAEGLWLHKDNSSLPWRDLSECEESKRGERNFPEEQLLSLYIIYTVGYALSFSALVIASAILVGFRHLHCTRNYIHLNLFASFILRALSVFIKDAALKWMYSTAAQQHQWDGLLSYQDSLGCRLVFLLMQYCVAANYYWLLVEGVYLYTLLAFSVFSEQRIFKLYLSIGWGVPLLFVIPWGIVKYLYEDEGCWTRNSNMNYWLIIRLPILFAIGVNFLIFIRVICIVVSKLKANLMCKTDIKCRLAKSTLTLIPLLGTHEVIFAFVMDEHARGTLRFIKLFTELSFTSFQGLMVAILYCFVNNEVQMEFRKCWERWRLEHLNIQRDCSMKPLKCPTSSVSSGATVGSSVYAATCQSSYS

[4] = target: endogenous glucagon receptor of primary rat hepatocytes (rat, UniProt P30082 27-485)
Chain of endogenous glucagon receptor of primary rat hepatocytes (P30082 27-485): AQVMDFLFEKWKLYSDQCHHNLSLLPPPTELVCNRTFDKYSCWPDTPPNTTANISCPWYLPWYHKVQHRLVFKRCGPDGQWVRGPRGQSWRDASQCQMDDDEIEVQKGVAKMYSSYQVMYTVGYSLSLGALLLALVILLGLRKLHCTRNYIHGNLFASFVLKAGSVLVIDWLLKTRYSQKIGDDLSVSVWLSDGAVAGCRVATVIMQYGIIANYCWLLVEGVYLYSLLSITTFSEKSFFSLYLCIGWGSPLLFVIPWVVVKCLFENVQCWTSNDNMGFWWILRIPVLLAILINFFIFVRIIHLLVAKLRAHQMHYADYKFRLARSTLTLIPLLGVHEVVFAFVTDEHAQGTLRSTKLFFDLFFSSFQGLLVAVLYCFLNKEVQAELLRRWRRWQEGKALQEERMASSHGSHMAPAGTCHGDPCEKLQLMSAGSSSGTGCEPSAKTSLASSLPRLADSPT

Chain of human glucagon receptor (Glucagon-R) (P47871 26-477): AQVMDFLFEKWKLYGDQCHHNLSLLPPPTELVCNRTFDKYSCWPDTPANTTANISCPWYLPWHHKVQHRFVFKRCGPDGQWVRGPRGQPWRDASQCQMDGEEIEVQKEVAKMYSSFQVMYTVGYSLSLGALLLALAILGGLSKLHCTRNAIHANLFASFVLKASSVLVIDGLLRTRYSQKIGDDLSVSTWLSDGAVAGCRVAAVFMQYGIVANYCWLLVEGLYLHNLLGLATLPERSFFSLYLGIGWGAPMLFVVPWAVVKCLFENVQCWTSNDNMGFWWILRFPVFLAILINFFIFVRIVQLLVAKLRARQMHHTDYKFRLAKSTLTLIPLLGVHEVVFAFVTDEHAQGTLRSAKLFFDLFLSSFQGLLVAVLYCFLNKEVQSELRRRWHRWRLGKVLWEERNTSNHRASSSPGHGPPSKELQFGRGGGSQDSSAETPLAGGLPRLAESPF

EC50 hGCGR CHO-K1 [nM] (cAMP) [1]: 0.1 nM | EC50 hGLP-1R CHO-K1 [nM] (cAMP) [2]: 0.24 nM | Ratio GLP-1/Glucagon (EC50 hGLP-1R / EC50 hGCGR) [2]: 2.4 ratio | EC50 GLP-1R (murine insulinoma cells) [nM] (cAMP) [3]: 0.35 nM | EC50 GLP-1R Rat hepat. [nM] (inhibition of glycogen synthesis) [4]: 0.28 nM
B1: Compound 22 (peptide)
peptide: H-HSQGTFTSDYSKYLEEK([γGlu-Palmitoyl])AAKDFIEWLESA-NH2
SMILES: CCCCCCCCCCCCCCCC(=O)N[C@@H](CCC(=O)NCCCC[C@H](NC(=O)[C@H](CCC(=O)O)NC(=O)[C@H](CCC(=O)O)NC(=O)[C@H](CC(C)C)NC(=O)[C@H](Cc1ccc(O)cc1)NC(=O)[C@H](CCCCN)NC(=O)[C@H](CO)NC(=O)[C@H](Cc1ccc(O)cc1)NC(=O)[C@H](CC(=O)O)NC(=O)[C@H](CO)NC(=O)[C@@H](NC(=O)[C@H](Cc1ccccc1)NC(=O)[C@@H](NC(=O)CNC(=O)[C@H](CCC(N)=O)NC(=O)[C@H](CO)NC(=O)[C@@H](N)Cc1c[nH]cn1)[C@@H](C)O)[C@@H](C)O)C(=O)N[C@@H](C)C(=O)N[C@@H](C)C(=O)N[C@@H](CCCCN)C(=O)N[C@@H](CC(=O)O)C(=O)N[C@@H](Cc1ccccc1)C(=O)N[C@H](C(=O)N[C@@H](CCC(=O)O)C(=O)N[C@@H](Cc1c[nH]c2ccccc12)C(=O)N[C@@H](CC(C)C)C(=O)N[C@@H](CCC(=O)O)C(=O)N[C@@H](CO)C(=O)N[C@@H](C)C(N)=O)[C@@H](C)CC)C(=O)O

EC50 hGCGR CHO-K1 [nM] (cAMP) [1]: 0.25 nM | EC50 hGLP-1R CHO-K1 [nM] (cAMP) [2]: 0.13 nM | Ratio GLP-1/Glucagon (EC50 hGLP-1R / EC50 hGCGR) [2]: 0.52 ratio | EC50 GLP-1R (murine insulinoma cells) [nM] (cAMP) [3]: 0.31 nM | EC50 GLP-1R Rat hepat. [nM] (inhibition of glycogen synthesis) [4]: 1.32 nM
B2: Compound 23 (peptide)
peptide: H-H[Aib]QGTFTSDYSKYLESK([γGlu-Palmitoyl])AAHDFVEWLESA-NH2
SMILES: CCCCCCCCCCCCCCCC(=O)N[C@@H](CCC(=O)NCCCC[C@H](NC(=O)[C@H](CO)NC(=O)[C@H](CCC(=O)O)NC(=O)[C@H](CC(C)C)NC(=O)[C@H](Cc1ccc(O)cc1)NC(=O)[C@H](CCCCN)NC(=O)[C@H](CO)NC(=O)[C@H](Cc1ccc(O)cc1)NC(=O)[C@H](CC(=O)O)NC(=O)[C@H](CO)NC(=O)[C@@H](NC(=O)[C@H](Cc1ccccc1)NC(=O)[C@@H](NC(=O)CNC(=O)[C@H](CCC(N)=O)NC(=O)C(C)(C)NC(=O)[C@@H](N)Cc1c[nH]cn1)[C@@H](C)O)[C@@H](C)O)C(=O)N[C@@H](C)C(=O)N[C@@H](C)C(=O)N[C@@H](Cc1c[nH]cn1)C(=O)N[C@@H](CC(=O)O)C(=O)N[C@@H](Cc1ccccc1)C(=O)N[C@H](C(=O)N[C@@H](CCC(=O)O)C(=O)N[C@@H](Cc1c[nH]c2ccccc12)C(=O)N[C@@H](CC(C)C)C(=O)N[C@@H](CCC(=O)O)C(=O)N[C@@H](CO)C(=O)N[C@@H](C)C(N)=O)C(C)C)C(=O)O

EC50 hGCGR CHO-K1 [nM] (cAMP) [1]: 0.92 nM | EC50 hGLP-1R CHO-K1 [nM] (cAMP) [2]: 0.11 nM | Ratio GLP-1/Glucagon (EC50 hGLP-1R / EC50 hGCGR) [2]: 0.12 ratio | EC50 GLP-1R (murine insulinoma cells) [nM] (cAMP) [3]: 0.33 nM | EC50 GLP-1R Rat hepat. [nM] (inhibition of glycogen synthesis) [4]: 6.15 nM
B3: Compound 24 (peptide)
peptide: H-H[Aib]QGTFTSDYSKYLESK([γGlu-Palmitoyl])AAEDFVEWLESA-NH2
SMILES: CCCCCCCCCCCCCCCC(=O)N[C@@H](CCC(=O)NCCCC[C@H](NC(=O)[C@H](CO)NC(=O)[C@H](CCC(=O)O)NC(=O)[C@H](CC(C)C)NC(=O)[C@H](Cc1ccc(O)cc1)NC(=O)[C@H](CCCCN)NC(=O)[C@H](CO)NC(=O)[C@H](Cc1ccc(O)cc1)NC(=O)[C@H](CC(=O)O)NC(=O)[C@H](CO)NC(=O)[C@@H](NC(=O)[C@H](Cc1ccccc1)NC(=O)[C@@H](NC(=O)CNC(=O)[C@H](CCC(N)=O)NC(=O)C(C)(C)NC(=O)[C@@H](N)Cc1c[nH]cn1)[C@@H](C)O)[C@@H](C)O)C(=O)N[C@@H](C)C(=O)N[C@@H](C)C(=O)N[C@@H](CCC(=O)O)C(=O)N[C@@H](CC(=O)O)C(=O)N[C@@H](Cc1ccccc1)C(=O)N[C@H](C(=O)N[C@@H](CCC(=O)O)C(=O)N[C@@H](Cc1c[nH]c2ccccc12)C(=O)N[C@@H](CC(C)C)C(=O)N[C@@H](CCC(=O)O)C(=O)N[C@@H](CO)C(=O)N[C@@H](C)C(N)=O)C(C)C)C(=O)O
